Laboratory results published in a protein production outcome set (Wang et al. 2014).

Assay: label from the status in PepcDB records
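Note: failed if final PepcDB status was selected cloned or expressed and not failed if soluble or beyond.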

| Sequence | protein production |
| --- | --- |
| MYHILFRRKSIVPAYNESTTIVSSIDSLLHLDYEAYEIIVVDDGSSDNTSDVLKEEFALMKISNTIDSIIATQTCKDVFQRQVGKVKLTLIVKENGGKGDALNMGINAANYDYFLCLDADSMLQVDSLSQISKSIQVDPTVIAVGGLVQVAQGVKIEQGKVASYRLPWRIIPCAQALEYDSSFLGARIFLDYLRANLIISGAFGLFKKDLVKAVGGYDTQTLGEDMELVMKLHFFCRNNNIPYRICYETDAVCWSQAPTNLGDLRKQRRRWYLGLYQCLKKYKSIFANYRFGAVGSISYIYYILFELLTPFIECFGIVIIFLSLLFNQLNIPFFISLVSLYIFYCVLITLSSFLHRIYSQQLVIGILDIVKVFYIAVFRYLILHPVLTFVKVASVIGYKNKKMVWGHITREKQMKDFETSVT | failed |
| MYIPKYFKVTNAEEIWNFVQENSFGTVVTTEQGKPIATHLPLGFNKKDDHYYITGHFAYGNPQWRTFEACEDVLVMFQGPHAYISSSWYSRENVPTWNYQAVHMYGKASMLEKDELAEELTIMLEQKTPTQAFSVLWDKLSPKLLESELKGIVGFKIKVEDIQAAYKLSQNRNETDYMNVIEQLQNEENPNAKQMAELMEDKLKKQI | not failed |
| MYKATVIIKLKKGVLNPEGRTIQRALNFLGFNNVKEVQTYKMIDIIMEGENEEKVKEEVEEMCKKLLANPVIHDYEIKVEKIE | not failed |
| MYKDKVAVIMSVYKSDNPIDFNVAVNSIIRQTLKCDIFIYQDGPVSRELKSAINRFRKFNNIFIFVSEENKGLAYALNYLIDSCLLNNYQYIARMDSDDISHKNRMSIQVNFLEDNSDIHVVGSYCKEFGADCSLAEKKLPITHNDLLNFSITRCPFIHPSVMFRTSIFYNGLRYPVNTKYTEDMAFWFILLDLGYKFENIPETLIDYRMTENTVLRRRGFDKALSEVFIRFKYMIKFKKITVKNVSFIIGRFVFHLLPPNAIKYLYKKMR | failed |
| MYKEGACLYRNPLRSKSDVKDWRMEGGGQISFDDHSLHLSHVQDEAHFVFWCPETFPDGIIVTWDFSPIEQPGLCMLFFAAAGIRGEDLFDPSLRKRTGTYPEYHSGDINALHLSYFRRKYAEERAFRTCNLRKSRGFHLAAMGADPLPSPDDADSPYRMKLIKDKGYVHFSINGLPILEWMDDGSTYGPVLTKGKIGFRQMAPMKAVYRDFAVHQAVRR | not failed |
| MYKHILVPVDLNEQGFADKAVQLAVWHAKHSNAEIHLLNVLPGIHMSMVATYFPKDAAAQMKNDVRAQLKAFAEKHIAEEVVYKLHIAEGKPYATILDYAERLGADLIVMPSHKRSRIDKVMLGSVASKVVENSPINVMVVKPQG | not failed |
| MYKLGVFLLATLLSANTQKVSDIAKDIQHKETLLKKTHEEKNQLNSRLSSLGEAIRSKELQKAEMERQMIALKKSLEKNRNESLAQEKVLTNYRKSLDHLQKKRSFLQKRVFDTLLQDFLFSQALKGQNLASSNDVVLQVAFENLHQSTLSKMSQLSQEEKELNTQALKVKNSIQKISSIIDEQKTREVTLKSLKTEQDKLILSMQKDYAIYNQRLTLLEKERQNLNALLKRLNIIKQNRENEEKVSLKKSSQALEVKQVASSYQNINTTSYNGPKTIAPLNDYEVVQKFGPYIDPVYNLKIFSESITLVSKTPNALVRNVLDGKIVFAKEINMLKKVVIIEHKNGIRTIYSQLDKIAPTIKSGMRIQKGYVLGRIDQRLGFEVTMREKHINPLELIARN | failed |
| MYKTIIMPVDVFEMALSDKAVRHAEFLAQQDGVIHLLHVLPGSASFTMSRFTADLRRFEEHLQHEAETRLQTMVSHFSIDPSRIKLHVRFGSVRDMVNELASEINADVVVIGSRNPSISTHLLGSNASSVIRHAHIPVMVVR | failed |
| MYLLNDKVAHELKKPFGKVYKELPSIEGKVVSIGDVTTKHLLSNGIIPDLSILDFKTKRNIPVDIPHKFKTIFEVENPQGCISDEAIERIKYLSTIHDRDMALIIKGEEDLLTIPVIKYFPEDTSVIYGQPDEGMVLLKITDELKQKIEKLLKEMEER | failed |
| MYLNPKLSYMQFFMGFLFVITFILATFNICSYLVAIVCMALLNLTFVIGAFQQKQYTSFVIALVMSFSFSIVAIVFYIK | failed |
| MYLSLLKSLNRLSPRAWDFVQLTRIDKPIGIYLLLWPTLWAVWIAGKGSPSLNTVFIFVAGVFLMRAAGCVINDFADRKVDGHVKRTEQRPLVSGKVSSREALVLFAVLVSLSFVLVLFTNSTTIWLSFGGLALAACYPFMKRYTYYPQVVLGAAFSWGMPMAFTAETGELPAAAWLLYIANLLWTVGYDTYYAMVDRDDDLKIGVKSTAVLFGDADRVIILSLQGLALGCLALAGSRFELGAFFYMGLLVAAACFAWEFWSTRLRERDACFKAFLHNHWAGLAIFLGIVADYALR | failed |
| MYLYLSLILLAFTLSLDSCSVGLTYGLRSVRIPLRSIIIIGMCSAAVMLVSMGIGHMIAKVFSPVIATRIGGLVLIGIGIWVLYQFFRSERKEEPKQEEKVWKLEIASLGLVIQILRKPTVADFDKSGTISAGEALLLGIALSVDSFGAGIGASLLGYAPAMMAILVAVMSSLFLFIGMKLGTVLSNMKWLQKFTFLPGVLLIIIGIWKM | failed |
| MYMDHFPTFGGYIFSMATYYSLIPLTLLIALRAKWDYIMRHYWRSVARGFIIAILIALPVTSILQFKLTGDYLYVYSLTKTGVCITSSCLISRMKENEYYKFNVTGLQKYGIPNLGIMQAYRLVDKKFNKLKWRYDVVNAVVIIRSLFPLPITEVWSYEVDPKESHKIIGLRKFYVYYPYNPGTLLSRAYDFEFTMFLWGSGGGVA | failed |
| MYMSSLQSTRERVLGTPRRRYKVLVAKMGLDGHDRGAKVVARALRDAGFEVVYTGLRQTPEQVAMAAVQEDVDVIGVSILNGAHLHLMKRLMAKLRELGADDIPVVLGGTIPIPDLEPLRSLGIREIFLPGTSLGEIIEKVRKLAEEKRMREEAEASEQVGQA | not failed |
| MYNTVVYSIVVPLYNEELVIDENYMRLKKIMDSLKENYEIMYVNDGSKDSTMNKVEKICEKDKRIKLVNFSRNFGHQCAISAGMELSAGDAIIVIDADLQDPPEVIPQMIDKWKDGYDVVYGKRLKRKGESFLKKFTAKIFYRLLRSITNIDIPVDTGDFRLIDRKVCDTLSSLPERNRYVRGLVSWVGFKQTFVEFTRQERFAGASKYPLKKMLKLAFDGITSFSYKPLVASTYLGGLMFLLGLLAFIYVTAKNLYSHKTILTLGLILAINLCMFGLIFIILGILGQYIGRISDESKARPNYIIASTINYKENIKEVEPSEVKLN | failed |
| MYPSSSPGHRQYFLGVKSSLPLLWLMVFPALIGGVLNINPVQAQGTPYIPPPITPPPLSPSENPFDPSLFPTDPLIPSGETLTPLQRRRLIEALDALEAEALVLDQAGQGDQAFEVRYRSLRGRQRLGDLAEVEALGRIGAIAWEQGRNQDVMAIGQRLEDLQLSLTKDKAMSPELLTAFAKAYGQLHSLDSAIAVYQQMRREAQQQGDYRRENQALSMLGELYLAKFNYPAAAEVYETLLARATNARNSYYEGIYLQKLGEIYQQSAQPDNAIRIKEQLVQRRLQDGKPELVPDIQIAIGDHYLELEQPENASQAYQKAYTLAWSIKQLSTAAIALDKLGDLYLFSEQPNYALQIYKQLLQVQQQSYNYYGMMITYEKIAQLYIDAQQTSAALTAYQQALSLARSLKYSTKENNILNQIQTISGGTGS | failed |
| MYPYIKLIATLFRAKNSPQMNLDEKSVLNCRAGLTDIDVFVELNNARHLTYMEFGRWDFAQRTGLLSLMRKNKWAFAVGGASVRYRRRIAFWKKFTVTTQVICHDGRWFYFLQETHIKDKVCSSALIKAAFTSKQGLVPATEVLAAYGKTTPNFDVPDWVNAWIDAESQRPWPLEHHHHHH | not failed |
| MYQDRQGVVGGGGGGGSAPHGIILAVVVALVVLVPFFIGDSGEAITDAIAELLSPVGLLLLPIILLLTIQFLSSERGSFVSAIFSTGEPESIHRVSGSPVGVALFLVLILFLLYYRFSIFGGDDGSDD | failed |
